The assay deals with T1, 人可溶性转铁蛋白受体校准品 (human, UniProt P02786 101-760, limits assumed).
T1 construct: also called sTfR校准品
Briefly: double-antibody sandwich latex immunoturbidimetry on the calibrator, OD570nm.

The values below come from patent CN112409487A (NINGBO SAIPO BIOTECHNOLOGY CO LTD, dated 2021).

T1 sequence (P02786 101-760 limits assumed): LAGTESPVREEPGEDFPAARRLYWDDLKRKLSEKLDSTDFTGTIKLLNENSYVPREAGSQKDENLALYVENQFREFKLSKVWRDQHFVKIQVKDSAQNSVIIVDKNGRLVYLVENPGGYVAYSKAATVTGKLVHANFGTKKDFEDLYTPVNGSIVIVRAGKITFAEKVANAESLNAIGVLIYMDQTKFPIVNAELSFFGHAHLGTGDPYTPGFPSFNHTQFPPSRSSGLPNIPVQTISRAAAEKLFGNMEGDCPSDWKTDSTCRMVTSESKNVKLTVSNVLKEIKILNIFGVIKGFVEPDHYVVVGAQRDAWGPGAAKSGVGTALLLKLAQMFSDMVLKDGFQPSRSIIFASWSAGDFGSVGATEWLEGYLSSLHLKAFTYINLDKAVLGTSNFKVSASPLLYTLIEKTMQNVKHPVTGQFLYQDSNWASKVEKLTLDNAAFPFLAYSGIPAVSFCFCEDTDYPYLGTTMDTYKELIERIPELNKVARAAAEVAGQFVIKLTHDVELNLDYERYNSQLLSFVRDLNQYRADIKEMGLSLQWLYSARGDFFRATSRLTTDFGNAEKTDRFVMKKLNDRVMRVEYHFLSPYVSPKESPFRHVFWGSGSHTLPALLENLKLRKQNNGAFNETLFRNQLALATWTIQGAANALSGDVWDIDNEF

B1: 鼠单克隆抗体8E11 (antibody, V domains shown)
VH: QVQLQQSGAELVRPGTSVKISCKASGYAFTNYWLGWVKQRPGRGLEWIGDIFPGSSNTYYNEKFKGKASLTADKSSSTAYMHLSSLTSEDSAVYFCARVKDYYAMGYWGQGTSVTVSS
VL: ENVLTQSPAIMSASPGEKVTMTCSASSSVSYMNWYQQKSITSPKLWIYDTFKLASGVPGRFSGSGSGNSYSLTISSMEAEDVATYYCFQGSGYPYTFGGGTKLEIK
notes: Mouse hybridoma monoclonal antibody, purified from ascites on protein G and detected with goat anti-mouse IgG; It was coupled to latex particles in the turbidimetric assay; also called 第一单克隆抗体
Consider B1, for which the binding result was “binds”.
